This is an account of results in US20040141968A1 (published 2004).

The target of experiment [1] is T1, HSV-1 glycoprotein B, soluble (HSV-1, UniProt P10211 31-730).
T1 construct: also called HSV-1 gB; gB HSV
Briefly: SPR; DC-SIGN CRD injected over immobilised HSV-1 gB.

In experiment [2] the target is T2, HIV-1 gp120 (MN isolate) (HIV-1 (MN isolate), UniProt P05877 32-513, biotinylated when used as the labelled ligand on cells; unlabelled as competitor and on the SPR chip).
T2 construct: domain: gp120; Unlabelled gp120 came from the NIBSC repository; also called biotinylated HIV-1 gp120; HIV-1 Env glycoprotein 120
Briefly: SPR (Biacore); DC-SIGN CRD injected over immobilised HIV-1 gp120; Langmuir fit, average. For orientation: Surface plasmon resonance follows binding to a sensor surface in real time, without labels.

Experiment [3] concerns the target T2, HIV-1 gp120 (MN isolate). Description: SPR (Biacore); DC-SIGN CRD injected over immobilised HIV-1 gp120; from koff/kon.
In experiment [4] the target is T2, HIV-1 gp120 (MN isolate). Briefly: flow cytometry; biotinylated protein on transfected HEK 293T cells, PE-streptavidin.
Experiment [5] has as its target T3, biotinylated Bovine Serum Albumine (bovine, UniProt P02769 25-607).
T3 construct: also called BSA; biotinylated-BSA
Description: flow cytometry; biotinylated BSA on HEK 293T cells transfected with DC-SIGNR, PE-streptavidin.

Experiment [6] addresses T3, biotinylated Bovine Serum Albumine. Description: flow cytometry; biotinylated BSA on HEK 293T cells transfected with DC-SIGN, PE-streptavidin. Background: In flow cytometry, cells or beads pass a laser one at a time.

T3 sequence (P02769 25-607 limits assumed): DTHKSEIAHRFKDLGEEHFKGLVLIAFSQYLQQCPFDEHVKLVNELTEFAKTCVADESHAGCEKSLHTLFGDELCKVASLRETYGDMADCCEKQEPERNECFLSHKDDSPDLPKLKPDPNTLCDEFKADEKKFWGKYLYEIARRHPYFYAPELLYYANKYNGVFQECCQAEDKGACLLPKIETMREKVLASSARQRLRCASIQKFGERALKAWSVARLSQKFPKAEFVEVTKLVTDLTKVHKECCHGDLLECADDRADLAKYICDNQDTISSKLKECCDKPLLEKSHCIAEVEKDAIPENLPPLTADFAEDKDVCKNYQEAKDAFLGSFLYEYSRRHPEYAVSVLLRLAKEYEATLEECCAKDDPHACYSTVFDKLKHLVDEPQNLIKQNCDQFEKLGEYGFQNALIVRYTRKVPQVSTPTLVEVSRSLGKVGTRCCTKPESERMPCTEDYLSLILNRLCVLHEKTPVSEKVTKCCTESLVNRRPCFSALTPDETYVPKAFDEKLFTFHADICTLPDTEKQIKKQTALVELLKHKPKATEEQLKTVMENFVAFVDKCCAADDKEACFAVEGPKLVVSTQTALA

B1: recombinant soluble CRD of DC-SIGN (amino acids 254-404) (receptor)
chain: HPCPWEWTFFQGNCYFMSNSQRNWHDSITACKEVGAQLVVIKSAEEQNFLQLQSSRSNRFTWMGLSDLNQEGTWQWVDGSPLLPSFKQYWNRGEPNNVGEEDCAEFSGNGWNDDKCNLAKFWICKKSAASCSRDEEQFLSPAPATPNPPPA
notes: range 254-404; Purified on Ni-NTA and mannose-agarose; also called DC-SIGN CRD; recombinant soluble CRD domain of DC-SIGN
Broadly, the koff is the first-order rate constant of dissociation. Read a low koff as slow dissociation. What is called kon is the second-order rate constant of association. High values mean fast association, low ones slow association. As usually defined, the Kd is the constant that tells how readily two partners part at equilibrium. Take B1: in experiment [1], the binding result is given as “no binding (tested: 0.13 to 1 µM)”. Also, in experiment [2], the koff was found to be 0.00101 s⁻¹ and the kon was determined as 3330 M⁻¹ s⁻¹. This molecule gave a Kd in experiment [3] of 300 nM.

B2: DC-SIGNR expressed on transiently transfected HEK 293T cells (receptor, human, UniProt Q9H2X3 1-399, looked up)
chain: MSDSKEPRVQQLGLLEEDPTTSGIRLFPRDFQFQQIHGHKSSTGCLGHGALVLQLLSFMLLAGVLVAILVQVSKVPSSLSQEQSEQDAIYQNLTQLKAAVGELSEKSKLQEIYQELTQLKAAVGELPEKSKLQEIYQELTRLKAAVGELPEKSKLQEIYQELTRLKAAVGELPEKSKLQEIYQELTRLKAAVGELPEKSKLQEIYQELTELKAAVGELPEKSKLQEIYQELTQLKAAVGELPDQSKQQQIYQELTDLKTAFERLCRHCPKDWTFFQGNCYFMSNSQRNWHDSVTACQEVRAQLVVIKTAEEQNFLQLQTSRSNRFSWMGLSDLNQEGTWQWVDGSPLSPSFQRYWNSGEPNNSGNEDCAEFSGSGWNDNRCDVDNYWICKKPAACFRDE
notes: whole, on cells
B2: the binding result is “binds” in experiment [4] and “no binding” in experiment [5].

B3: human DC-SIGN (DC-Specific ICAM-Grabbing Nonintegrin) expressed at the cell surface (receptor, UniProt Q9NNX6 1-404, looked up)
chain: MSDSKEPRLQQLGLLEEEQLRGLGFRQTRGYKSLAGCLGHGPLVLQLLSFTLLAGLLVQVSKVPSSISQEQSRQDAIYQNLTQLKAAVGELSEKSKLQEIYQELTQLKAAVGELPEKSKLQEIYQELTRLKAAVGELPEKSKLQEIYQELTWLKAAVGELPEKSKMQEIYQELTRLKAAVGELPEKSKQQEIYQELTRLKAAVGELPEKSKQQEIYQELTRLKAAVGELPEKSKQQEIYQELTQLKAAVERLCHPCPWEWTFFQGNCYFMSNSQRNWHDSITACKEVGAQLVVIKSAEEQNFLQLQSSRSNRFTWMGLSDLNQEGTWQWVDGSPLLPSFKQYWNRGEPNNVGEEDCAEFSGNGWNDDKCNLAKFWICKKSAASCSRDEEQFLSPAPATPNPPPA
notes: whole, on cells; On transduced THP-1, HeLa and HEK 293T cells, and naturally on monocyte-derived dendritic cells; For HEK 293T the cDNA was in pcDNA3 myc-His (version A); also called CD209; DC-SIGN^+ THP-1 cells
B3: the figures for the binding result in experiment [4] and in experiment [6] were “binds” and “no binding”, respectively.
